Measured values reported in IntAct's records for PubMed 23893131.

B1: Glia maturation factor gamma (Mus musculus), Q9ERL7 (parent)
chain: MSDSLVVCEVDPELKETLRKFRFRKETNNAAIIMKVDKDRQMVVLEDELQNISPEELKLELPERQPRFVVYSYKYVHDDGRVSYPLCFIFSSPVGCKPEQQMMYAGSKNRLVQTAELTKVFEIRTTDDLTETWLKEKLAFFR

Variants of: B1
Settings: with arpc2_bovin ARPC2, Q3MHR7

Effect of a mutation on the interaction, decreasing interaction strength:
M102A
R124E
D128K
